Measured values taken from paper PMC9452904.

Assays:
[1] = target: ribosome-nascent chain complex with the HA-tagged GatY(1-153) nascent chain (E. coli) (UniProt P0C8J6); test: fluorescence correlation spectroscopy (FCS); endpoint: ~2 ug truncated mRNA and 100 nM labeled TF in PUREfrex solution, 5-15 min at 37 C, then measured; two-component fit with the fast component fixed to free TF
[2] = target: ribosome-nascent chain complex with the HA-tagged GatY(1-284) nascent chain (E. coli) (UniProt P0C8J6); test: as above
vacant ribosome = test: fluorescence correlation spectroscopy (FCS); 100 nM Alexa488-labeled TF with increasing ribosome concentrations in HKM buffer (25 mM Hepes-KOH pH 7.4, 100 mM KCl, 5 mM MgCl2); ratio of ribosome-bound TF from a two-component fit, Kd from a quadratic fit
[3] = target: Trigger factor (Escherichia coli) (UniProt P0A850); settings: cited from earlier work
[4] = target: ribosome-nascent chain complex with the HA-tagged GatY(1-153) nascent chain on the TMR-labeled Halo-S2 ribosome (E. coli | not stated) (UniProt P0C8J6); test: single-molecule total internal reflection fluorescence microscopy (TIRFM); RNCs held on a PEG/biotin-PEG slide through neutravidin and anti-HA biotin; 50 nM Alexa647-labeled TF, 50 nM TMR-labeled Halo-S2 ribosome; 10 frames/s for 150 s; residence times fitted
[5] = target: ribosome-nascent chain complex with the HA-tagged GatY(1-284) nascent chain on the TMR-labeled Halo-S2 ribosome (E. coli | not stated) (UniProt P0C8J6); test: as above

Work on “Alexa488-labeled trigger factor TF-R14C (from UniProt P0A850 1-432) (natural protein)” yielded a percent of TF in the slow component [1] of 90%, a percent of TF in the slow component [2] of 90% and a Kd (vacant ribosome) of 2240 nM.
For Trigger factor (from UniProt P0A850), the Kd [3] is given as 1500 nM.
With “Alexa647-labeled TF-R14C (from UniProt P0A850 1-432) (natural protein)” the half-life of the residence time (fast component) [4] was 2.7 s and the half-life of the residence time (slow fraction) [5] was 9.8 s.
